Laboratory results from patent US12084487B2, “Nanoparticles having molecules that bind or block PD-L1 and uses in treating cancer” (Emory University, priority 2016, dated 2024).

Molecular target: T1, PD-L1 on tumor cell surfaces (mouse pancreatic cancer KC cells) (Mus musculus, UniProt Q9EP73)
T1 construct: endogenous in cells; host or cells: KC mouse pancreatic cancer cells (Pdx1-Cre; LSL-K-rasG12D derived)
Test: Competition-binding assay of FITC labeled PD-1 peptides with anti-mouse PD-L1 antibody on KC cells
Details: for fluorescence intensity on cells: FITC labeled peptide 2 μg/ml
Experimental: Two (2) μg of FITC labeled PD-1 peptides were mixed with 0, 5, 20 μg of anti-mouse PD-L1 antibody and then incubated with the KC cells for 2 hours. Unbound peptides and antibodies were washed off. Relative fluorescent intensities of KC cells were measured for each group.
Next, a competition-binding assay was performed to determine specificity of the PD-1 like peptides binding to PD-L1 on tumor cell surfaces. […] The peptides were then added to tissue culture plates with mouse pancreatic cancer KC cells.

T1 sequence (Q9EP73 19-290): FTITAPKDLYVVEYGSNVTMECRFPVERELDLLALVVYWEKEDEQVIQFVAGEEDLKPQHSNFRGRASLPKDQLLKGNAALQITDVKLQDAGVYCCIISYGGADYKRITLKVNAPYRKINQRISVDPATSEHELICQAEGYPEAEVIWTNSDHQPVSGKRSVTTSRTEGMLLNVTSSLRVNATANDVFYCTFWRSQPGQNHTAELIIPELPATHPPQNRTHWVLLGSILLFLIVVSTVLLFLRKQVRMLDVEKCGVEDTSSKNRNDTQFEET

binding to cells with anti-PD-L1 antibody added (20 μg/ml anti-PD-L1 antibody) | fluorescence intensity on cells | Sequence
reduced | High levels of fluorescence intensity | NWNRLSPSNQTEKQAAPHHHHCGAISLHPKAKIEE [PD-1 (Y)]
 | High levels of fluorescence intensity | NWNRLSPSNQTEKQAACGAISLHPKAKIEESPGHHHH [PD-1(Lin)]
